# Reference: US20220211858A1, “TUBULAR SUPRAMOLECULAR POLYMERS” (priority 2019, published 2022)
# Read-outs that look alike come from different tables or passages of the source.
# Columns and labels:
# [1] = TEM / cryo-TEM imaging of self-assembled nanostructures (dimensions); type: physicochemical; conditions: 2 mM in water
# [2] = CD measurement of SAPD stability in plasma/serum environments; type: physicochemical, rat; conditions: for change of CD absorptions versus aqueous solution: 200 μM in rat plasma, FBS, mice plasma, aged overnight
# Experimental: CD measurement of SAPDs in physiological environments. Stock solutions of SAPDs were prepared at 2 mM and aged overnight. The solutions were diluted to 200 μM in 10% fetal bovine serum (FBS), 10% mice plasma and 10% rat plasma, aged overnight before CD measurement. To study the kinetic stability of the assembled SAPDs upon dilution, the stock solutions of SAPD 1 and 2 were diluted to 100 μM, 50 μM, 25 μM, 10 μM, and 5 μM in 10% rat plasma. The CD spectra were recorded at 5 min, 1 h, 4 h, and 12 h. All the CD spectra were recorded from 300 to 450 nm using a 1 mm path length quartz cell. The spectra were collected and normalized from ellipticity (mdeg) to molar ellipticity (deg·cm2·dmol^−1).
# Stability of SAPDs in Protein Environments. The interactions of nanoparticles with serum proteins are known to impact the disassociation of supramolecular assemblies in biologically relevant environment. To assess the stability of assembled SAPDs in more complex biological media, we performed CD experiments to investigate their long-term stability in various serum environments. SAPDs solutions (2 mM) were diluted using rat plasma (FIG. 21C), fetal bovine serum (FBS), and mice plasma to yield a final concentration of 200 μM, which were then aged overnight before CD measurement was taken. […] We also performed experiments to assess their kinetic stability upon plasma dilution, mimicking the dissociation process of SPs after intravenous injection. Solutions of SAPD 1 and 2 (2 mM) were diluted to 100 μM, 50 μM, 25 μM, 10 μM, and 5 μM in rat plasma, and time-dependent CD spectra were recorded at 5 min, 1 h, 4 h, and 12 h. […] At 12 h, the decrease reached 22% and 33%, respectively.
# [3] = Critical micellization concentration (CMC) via Nile Red encapsulation; type: physicochemical; conditions: SAPDs, PBS buffer, Nile Red method
# Experimental: Nile Red is a hydrophobic, solvatochromic dye that fluoresces intensely upon exposure to hydrophobic environments compared with its strongly quenched and red-shifted fluorescence in aqueous environments. The CMC of the TTs was determined by incubating these molecules at various concentrations with a fixed content of Nile Red. 10 μL of a 1 mM Nile Red stock solution in acetone was added to each microcentrifuge tube to be used, with the acetone allowed to evaporate in a dark area. TT solutions of various concentrations were subsequently added to the Nile Red containing tubes and equilibrated overnight. The emission spectrum for each sample was then recorded on a Fluorolog spectrofluorometer (Horiba Jobin Yvon Inc., Edison, N.J.), acquiring between 580 and 720 nm with an excitation wavelength of 550 nm.
# CMC Measurement of SAPDs of TT1. We next assessed the CMC values for each of the designed SAPDs in aqueous solution. […] Experimentally, the CAC is often measured using spectrometry techniques such as circular dichroism (CD) to reveal the presence of intermolecular associations and packing at a much lower concentration. In the case reported here, the CMC values were measured in the PBS buffer using Nile Red as a probe, which fluoresces intensely in hydrophobic environments and is strongly quenched and red-shifted in aqueous media. […]
# [4] = Drug release of SAPDs in rat plasma; type: in vitro ADME; conditions: without GSH, read-out: remaining drugs
# Experimental: The drug release in rat plasma (10%, v/v) were performed using similar protocols as those in PBS. To determine the amount of SAPDs and free CPT in each sample, 50 μL of sample was mixed with 200 μL acetonitrile (containing 0.1% TFA) and sonicated for 1 min. The supernatants were collected using centrifugation. All samples were filtered through a 0.22 μm membrane before analysis by a UPLC system (Waters ACQuity™ Ultra Performance LC) equipped with a reverse-phase column (ACQuity UPLC@BEH, C18, 1.7 μm 2.1×150 mm) and a fluorescence detector (ACQuity FLR, Ex/Em=362/430 nm). The column was flushed with a mixture of water (0.1% TFA) and acetonitrile (0.1% TFA) at 0.3 mL/min with the following gradient: 5% acetonitrile (0-1 min), 5-95% acetonitrile (1-5 min), 95% acetonitrile (5-8 min), 95-5% acetonitrile (8-9 min), and 5% acetonitrile (9-10 min). Peaks of SAPDs and free CPT were monitored and recorded, and the concentrations were calculated by comparing with standard curves.
# [5] = Circulation studies of SAPDs in rats; type: in vivo, Sprague Dawley (SD) rats; conditions: 10 mg/kg i.v.; for CPT remained in the bounded form: 5 min
# Experimental: Circulation studies of SAPDs in rats. Female Sprague Dawley (SD) Rats (200-250 g) were randomly grouped into four groups with three rats in each group. SAPDs were all intravenously (i.v.) dosed at 10 mg/kg (CPT equivalent). The dosing volumes of SAPDs were estimated by a ratio of 1 mL for a 200 g rat. The blood samples were collected at 5 min, 15 min, 30 min, 1 h, 2 h, 4 h, 8 h, and 12 h, which were immediately centrifuged to take plasma for further analysis and stored at −80° C. The plasma proteins were precipitated using similar protocols as mentioned above in drug release section and the determination of SAPDs and free CPT in the plasma by UPLC also used the same conditions.
# Estimation of SAPD concentration in plasma upon injection. To calculation the concentration after dilution, we simply set the following parameters: body weight of mice (20 g), dosing volume of mice (200 μL), blood volume of mice (1.8 mL), body weight of rat (200 g), dosing volume of mice (1 mL), blood volume of mice (18 mL) and the dosage for both mice and rats (10 mg/kg).
Structure (SMILES),length of filaments (majority) [1],change of CD absorptions versus aqueous solution [2],CMC [3] [µM],"remaining at 96 h ([4]; rat plasma (10%, v/v)) [%]",CPT remained in the bounded form [5] [%],total CPT concentration in plasma ([5]; 1 h) [µM],total CPT concentration in plasma ([5]; 2 h) [µM],diameter of supramolecular filaments [1],"drop of CD absorption at 389 nm ([2]; 5 μM in rat plasma, 5 min) [%]","drop of CD absorption at 389 nm ([2]; 5 μM in rat plasma, 12 h) [%]","drop of CD absorption at 389 nm ([2]; 10 μM in rat plasma, 5 min) [%]","drop of CD absorption at 389 nm ([2]; 10 μM in rat plasma, 12 h) [%]","stability upon dilution over time ([2]; rat plasma, concentrations above 25 μM)",remaining at 96 h [4] [%],total CPT retained in the conjugate form ([5]; 1 h)
CC[C@]1(OC(=O)OCCSSC[C@@H](NC(C)=O)C(=O)N[C@@H](CCCCNC(=O)[C@@H](CSSCCOC(=O)O[C@]2(CC)C(=O)OCc3c2cc2n(c3=O)Cc3cc4ccccc4nc3-2)NC(C)=O)C(=O)N[C@@H](CCCCNC(=O)CCOCCOCCOCCOCCOC)C(=O)N[C@@H](CCCCNC(=O)CCOCCOCCOCCOCCOC)C(=O)N[C@@H](CCCCNC(=O)CCOCCOCCOCCOCCOC)C(=O)N[C@@H](CCCCNC(=O)CCOCCOCCOCCOCCOC)C(N)=O)C(=O)OCc2c1cc1n(c2=O)Cc2cc3ccccc3nc2-1 [SAPD 2],less than 400 nm,no noticeable changes,10.1,78,28,7.0,2.2,–,–,–,–,–,–,–,–
CC[C@]1(OC(=O)OCCSSC[C@@H](NC(C)=O)C(=O)N[C@@H](CCCCNC(=O)[C@@H](CSSCCOC(=O)O[C@]2(CC)C(=O)OCc3c2cc2n(c3=O)Cc3cc4ccccc4nc3-2)NC(C)=O)C(=O)N[C@@H](CCCCNC(=O)CCOCCOCCOCCOCCOC)C(=O)N[C@@H](CCCCNC(=O)CCOCCOCCOCCOCCOC)C(=O)N[C@@H](CCCCNC(=O)CCOCCOCCOCCOCCOC)C(=O)N[C@@H](CCCCNC(=O)CCOCCOCCOCCOCCOC)C(=O)N[C@@H](CCCCNC(=O)CCOCCOCCOCCOCCOC)C(=O)N[C@@H](CCCCNC(=O)CCOCCOCCOCCOCCOC)C(N)=O)C(=O)OCc2c1cc1n(c2=O)Cc2cc3ccccc3nc2-1 [SAPD 3],–,some slight changes,–,15,–,2.8,1.3,–,–,–,–,–,–,–,–
CC[C@]1(OC(=O)OCCSSC[C@@H](NC(C)=O)C(=O)N[C@@H](CCCCNC(=O)[C@@H](CSSCCOC(=O)O[C@]2(CC)C(=O)OCc3c2cc2n(c3=O)Cc3cc4ccccc4nc3-2)NC(C)=O)C(=O)N[C@@H](CCCCNC(=O)CCOCCOCCOCCOCCOC)C(=O)N[C@@H](CCCCNC(=O)CCOCCOCCOCCOCCOC)C(=O)N[C@@H](CCCCNC(=O)CCOCCOCCOCCOCCOC)C(=O)N[C@@H](CCCCNC(=O)CCOCCOCCOCCOCCOC)C(=O)N[C@@H](CCCCNC(=O)CCOCCOCCOCCOCCOC)C(=O)N[C@@H](CCCCNC(=O)CCOCCOCCOCCOCCOC)C(=O)N[C@@H](CCCCNC(=O)CCOCCOCCOCCOCCOC)C(=O)N[C@@H](CCCCNC(=O)CCOCCOCCOCCOCCOC)C(N)=O)C(=O)OCc2c1cc1n(c2=O)Cc2cc3ccccc3nc2-1 [SAPD 4],–,some slight changes,–,18,–,4.7,1.0,–,–,–,–,–,–,–,–
CC[C@]1(OC(=O)OCCSSC[C@@H](NC(C)=O)C(=O)N[C@@H](CCCCNC(=O)[C@@H](CSSCCOC(=O)O[C@]2(CC)C(=O)OCc3c2cc2n(c3=O)Cc3cc4ccccc4nc3-2)NC(C)=O)C(=O)N[C@@H](CCCCNC(=O)CCOCCOCCOCCOCCOC)C(=O)N[C@@H](CCCCNC(=O)CCOCCOCCOCCOCCOC)C(N)=O)C(=O)OCc2c1cc1n(c2=O)Cc2cc3ccccc3nc2-1 [TT 1],–,no noticeable changes,2.7,–,86,15.3,8.1,around 9 nm,15,33,10,22,highly stable,89,more than 72%
